Test results: the RNAGym collection of RNA variant scans (doi:10.1073/pnas.2313332121)

B1: TPR t1 (parent)
chain: GACCAAUCUGCCCUCAGAGCUCGAGAACAUCUUCGGAUGCAGAGGAGGCAGGCUUCGGUGGCGCGAUAGCGCCAACGUCCUCAACCUCCAAUGCAUCCCACCACAUGAUGAUGCCUGAAGAGCCUUGGUUUUUUG

Variants of: B1
Assay: polymerase ribozyme fitness, log enrichment relative to wild type (log ratio); higher = more active; in vitro selection for triplet polymerase activity
Summary of the method: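 Fitness compares each genotype's enrichment to that of the wild type on a logarithmic scale, averaging replicates with inverse-variance weights. The logarithm is base 2. Enrichment came from Illumina sequencing of input and output libraries after one triplicate round of in vitro selection, which included frozen incubation at −7 °C, of PCR-built, transcribed mutant libraries of each subunit of a heterodimeric triplet polymerase ribozyme. Only genotypes with ≥10 input reads and ≥1 read per output were kept.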
In the case of A2C U116A, the “polymerase ribozyme fitness (log ratio)” value is reported as -4.2. With A2U C8A G19U A24U A26U U33C A108G A111C A121G the “polymerase ribozyme fitness (log ratio)” value was -7.47. With C3U G77A A121U the “polymerase ribozyme fitness (log ratio)” value was 2.03. In the case of A2U G17C A26U G39A U59G G61U A83G C115U, the “polymerase ribozyme fitness (log ratio)” value is reported as -6.19. For A2C G63U C115U, the “polymerase ribozyme fitness (log ratio)” value was -4.82. For C3A C49G A75U U125A, the “polymerase ribozyme fitness (log ratio)” value was -2.69. For A2U C72A A83U C123G U126A, the “polymerase ribozyme fitness (log ratio)” value was -0.343. For C3U U7G A111U, the “polymerase ribozyme fitness (log ratio)” value was -1.66. For C3U C8A C79U A121C, the “polymerase ribozyme fitness (log ratio)” value was 1.18. With A2G G58A U106A G122U C123U the “polymerase ribozyme fitness (log ratio)” value was 0.431. For C3A G47A C72A A100C, the “polymerase ribozyme fitness (log ratio)” value was -2.89. For C3A G10A C13A G36U C70A U129C, the “polymerase ribozyme fitness (log ratio)” value was -5.83. For A2U C73U, the “polymerase ribozyme fitness (log ratio)” value was -2.69. In the case of C3U C70A C86U A118U, the “polymerase ribozyme fitness (log ratio)” value is reported as -1.74. In the case of C3U C62G, the “polymerase ribozyme fitness (log ratio)” value is reported as -2.24. In the case of A2U C40G C53G C72G, the “polymerase ribozyme fitness (log ratio)” value is reported as -2.9. In the case of A2U G17A, the “polymerase ribozyme fitness (log ratio)” value is reported as -5.45. For A2G C56G, the “polymerase ribozyme fitness (log ratio)” value was -1.69. In the case of A2G C56U, the “polymerase ribozyme fitness (log ratio)” value is reported as 0.13. In the case of A2U U21G C53U G58C C72U U129A, the “polymerase ribozyme fitness (log ratio)” value is reported as -1.46. In the case of C3A G48U G71C C101A G127A, the “polymerase ribozyme fitness (log ratio)” value is reported as -3.71. For A2U A5C G63C, the “polymerase ribozyme fitness (log ratio)” value was -3.31. For C3U G69U G113C, the “polymerase ribozyme fitness (log ratio)” value was -1.33. With C3U C15U U106G the “polymerase ribozyme fitness (log ratio)” value was -3.3. With C3A G17U A18C A24U U32G C40G G42U A43G U109C the “polymerase ribozyme fitness (log ratio)” value was -6.6. With A2U A43U the “polymerase ribozyme fitness (log ratio)” value was -3.48. For C3U C123A, the “polymerase ribozyme fitness (log ratio)” value was 0.564. In the case of C3U C123G, the “polymerase ribozyme fitness (log ratio)” value is reported as 1.6. With A2U C8U C11G C72A the “polymerase ribozyme fitness (log ratio)” value was -0.286. In the case of A2C G63U, the “polymerase ribozyme fitness (log ratio)” value is reported as -2.33. With A2G C72U C88U C124A the “polymerase ribozyme fitness (log ratio)” value was 1.45. With C3U C11G G63C C86U U109G U131A the “polymerase ribozyme fitness (log ratio)” value was -5.05. In the case of A2C G57C C72A C101A G135U, the “polymerase ribozyme fitness (log ratio)” value is reported as -3.06. With A2U C70G the “polymerase ribozyme fitness (log ratio)” value was -5.04. For A2G C40U U55C, the “polymerase ribozyme fitness (log ratio)” value was -1. In the case of A2C U21A C89G, the “polymerase ribozyme fitness (log ratio)” value is reported as -4.49. With C3U A43C A50G C73U the “polymerase ribozyme fitness (log ratio)” value was -2.2. For A2C G45A G57A C114U C124U G127C, the “polymerase ribozyme fitness (log ratio)” value was -5.9. For A2U C12A A43U G120A, the “polymerase ribozyme fitness (log ratio)” value was -1.89. In the case of A2G U116A A121U, the “polymerase ribozyme fitness (log ratio)” value is reported as -0.583. With C3U G10U A29G G44U G57C C82U A105U G120C the “polymerase ribozyme fitness (log ratio)” value was -6.47. In the case of A2U C12A C49U, the “polymerase ribozyme fitness (log ratio)” value is reported as -3.6. In the case of C3U G60A G77U G117C, the “polymerase ribozyme fitness (log ratio)” value is reported as -3.58. For C3U G36U G63U C88U A111U C124U, the “polymerase ribozyme fitness (log ratio)” value was -6.17. In the case of C3U C34G C73U C123U, the “polymerase ribozyme fitness (log ratio)” value is reported as -4.72. For A2U G52C, the “polymerase ribozyme fitness (log ratio)” value was -3.28. In the case of C3G U96A, the “polymerase ribozyme fitness (log ratio)” value is reported as -3.4. With C3U G48U U54G G120C the “polymerase ribozyme fitness (log ratio)” value was 0.141. For A2U C88G, the “polymerase ribozyme fitness (log ratio)” value was -3.37. In the case of A2U A16G A27U A46G G60U U106A G110A, the “polymerase ribozyme fitness (log ratio)” value is reported as -5.21. With A2G A29G the “polymerase ribozyme fitness (log ratio)” value was -1.34. With C3A A84G the “polymerase ribozyme fitness (log ratio)” value was -2.2. For C3A C85A, the “polymerase ribozyme fitness (log ratio)” value was -3.94. With C3A C85U the “polymerase ribozyme fitness (log ratio)” value was -2.76. In the case of C3U C86U A95U U125G U126G, the “polymerase ribozyme fitness (log ratio)” value is reported as -3.14. For C3G C8G G10A A18U A41G G69C A121G, the “polymerase ribozyme fitness (log ratio)” value was -4.57. With C3U G69U C94G C114A U125A the “polymerase ribozyme fitness (log ratio)” value was -3.19. In the case of A2U C94U, the “polymerase ribozyme fitness (log ratio)” value is reported as -3.62. For C3G C70G C80U G128C, the “polymerase ribozyme fitness (log ratio)” value was -1.99. For A2U C8U G45A C73U A95G G120A, the “polymerase ribozyme fitness (log ratio)” value was -0.341. For A2C G44A U59A U96A U112A U129A, the “polymerase ribozyme fitness (log ratio)” value was -2.9. For C3A G52U C72A C89G C104A G113U A119U C123G, the “polymerase ribozyme fitness (log ratio)” value was -5.02. In the case of C3U C11A C15A A121U, the “polymerase ribozyme fitness (log ratio)” value is reported as 0.659. For C3U C13U, the “polymerase ribozyme fitness (log ratio)” value was -0.225. In the case of C3G U7A C11A C40A C73U C85G, the “polymerase ribozyme fitness (log ratio)” value is reported as -4.89. With C3G G93A the “polymerase ribozyme fitness (log ratio)” value was -2.07. In the case of C3U A27C U130C, the “polymerase ribozyme fitness (log ratio)” value is reported as -2.28. For A2G G60A, the “polymerase ribozyme fitness (log ratio)” value was -0.122. For A2G A5U G71U A111U G120A, the “polymerase ribozyme fitness (log ratio)” value was -5.48. In the case of A2U A5G C12U G61A U112G, the “polymerase ribozyme fitness (log ratio)” value is reported as -2.18. With C3U C86A the “polymerase ribozyme fitness (log ratio)” value was -0.57. With C3A U92A C114U the “polymerase ribozyme fitness (log ratio)” value was -4.76. In the case of A2U C104U, the “polymerase ribozyme fitness (log ratio)” value is reported as -1.41. For C3A U116C, the “polymerase ribozyme fitness (log ratio)” value was -2.44. In the case of A2U U7C G44C G52C C56A, the “polymerase ribozyme fitness (log ratio)” value is reported as -4.24. In the case of C3U C34G C123U, the “polymerase ribozyme fitness (log ratio)” value is reported as -4.64. For C3G U9A G71U G110C, the “polymerase ribozyme fitness (log ratio)” value was -5.18. For A2G G77A C102A C123G G128C, the “polymerase ribozyme fitness (log ratio)” value was -3.09. In the case of C3U C12A C82A, the “polymerase ribozyme fitness (log ratio)” value is reported as -1.8. With C3A C99U the “polymerase ribozyme fitness (log ratio)” value was -3.8. With C3A G69A the “polymerase ribozyme fitness (log ratio)” value was -3.74. For A2U C11G G120A U132A, the “polymerase ribozyme fitness (log ratio)” value was 0.742. In the case of A2U G19U G25U A26G A27U, the “polymerase ribozyme fitness (log ratio)” value is reported as -6.04.
